Target: the molecule itself
Experiment: cryo-EM structure

B1: human sterol O-acyltransferase 1 (ACAT1), full length, C-terminal Flag-tag (enzyme, UniProt P35610 1-550, looked up)
chain: MVGEEKMSLRNRLSKSRENPEEDEDQRNPAKESLETPSNGRIDIKQLIAKKIKLTAEAEELKPFFMKEVGSHFDDFVTNLIEKSASLDNGGCALTTFSVLEGEKNNHRAKDLRAPPEQGKIFIARRSLLDELLEVDHIRTIYHMFIALLILFILSTLVVDYIDEGRLVLEFSLLSYAFGKFPTVVWTWWIMFLSTFSVPYFLFQHWATGYSKSSHPLIRSLFHGFLFMIFQIGVLGFGPTYVVLAYTLPPASRFIIIFEQIRFVMKAHSFVRENVPRVLNSAKEKSSTVPIPTVNQYLYFLFAPTLIYRDSYPRNPTVRWGYVAMKFAQVFGCFFYVYYIFERLCAPLFRNIKQEPFSARVLVLCVFNSILPGVLILFLTFFAFLHCWLNAFAEMLRFGDRMFYKDWWNSTSYSNYYRTWNVVVHDWLYYYAYKDFLWFFSKRFKSAAMLAVFAVSAVVHEYALAVCLSFFYPVLFVLFMFFGMAFNFIVNDSRKKPIWNVLMWTSLFLGNGVLLCFYSQEWYARQHCPLKNPTFLDYVRPRSWTCRYVF
B1 was tested. Which “stoichiometry N” value did it give?
The value was 4.
